Tests used:
[1] = target: RSV F DS-Cav1 (human RSV subtype A (strain A2)) (UniProt P03420); test: ELISA after 1 week at 4 °C
RSVF Cav1only = test: ELISA after 1 week at 4 °C
RSVF dFP = test: ELISA after 1 week at 4 °C
[2] = target: sc9-10 A149C Y458C Long CAV1only; test: ELISA after 1 week at 4 °C
sc9-10 Cav1only 100-360 = test: ELISA after 1 week at 4 °C
sc9-10 Cav1only 100-361 = test: ELISA after 1 week at 4 °C
sc9-10 Cav1only 100-362 = test: ELISA after 1 week at 4 °C
sc9-10 Cav1only 146-458 = test: ELISA after 1 week at 4 °C
sc9-10 Cav1only 369-455 = test: ELISA after 1 week at 4 °C
sc9-10 Cav1only 98-360 = test: ELISA after 1 week at 4 °C
sc9-10 Cav1only 98-361 = test: ELISA after 1 week at 4 °C
sc9-10 Cav1only 98-362 = test: ELISA after 1 week at 4 °C
sc9-10 Cav1only 99-360 = test: ELISA after 1 week at 4 °C
sc9-10 Cav1only 99-361 = test: ELISA after 1 week at 4 °C
sc9-10 Cav1only 99-362 = test: ELISA after 1 week at 4 °C
sc9-10 Cav1only = test: ELISA after 1 week at 4 °C
[3] = target: sc9-10 N183GC N428C Long CAV1only; test: ELISA after 1 week at 4 °C
[4] = target: RSV F DS-Cav1 (human RSV subtype A (strain A2)) (UniProt P03420); test: BLI (Octet), antibody reactivity over time at 60 °C
[5] = target: sc9-10 A DS-Cav1 A149C, Y458C; test: as above
[6] = target: sc9-10 DS-Cav1 A149C, Y458C S46G-E92D-S215P-K465Q (A2); test: as above
[7] = target: sc9-10 DS-Cav1 A149C, Y458C S46G-N67I-E92D-S215P-K465Q (A2); test: as above
[8] = target: sc9-10 DS-Cav1 A149C, Y458C S46G-S215P-K465Q (A2); test: as above
[9] = target: sc9-10 DS-Cav1 N183GC, N428C S46G-N67I-E92D-S215P-K465Q (A2); test: as above
[10] = target: sc9-10 DS-Cav1 N183GC,N428C; test: as above
[11] = target: RSV F DS-Cav1 (human RSV subtype A (strain A2)) (UniProt P03420); test: BLI (Octet), F on Ni-NTA tips, Fab in solution
[12] = target: RSV F sc9 DS-Cav1 (human RSV subtype A (strain A2)); test: BLI (Octet), F on Ni-NTA tips, Fab in solution
[13] = target: RSV F sc9-10 DS-Cav1 (human RSV subtype A (strain A2)); test: BLI (Octet), F on Ni-NTA tips, Fab in solution
[14] = target: RSV F sc9-9 DS-Cav1 (human RSV subtype A (strain A2)) (UniProt P03420); test: BLI (Octet), F on Ni-NTA tips, Fab in solution
sc10 DS-Cav1 = test: BLI (Octet), F on Ni-NTA tips, Fab in solution
sc11 DS-Cav1 = test: BLI (Octet), F on Ni-NTA tips, Fab in solution
sc9 DS-Cav1-105Q = test: BLI (Octet), F on Ni-NTA tips, Fab in solution
[15] = target: sc9-10 A DS-Cav1 A149C, Y458C; test: BLI (Octet), F on Ni-NTA tips, Fab in solution
[16] = target: sc9-10 DS-Cav1 A149C, Y458C S46G-E92D-S215P-K465Q (A2); test: BLI (Octet), F on Ni-NTA tips, Fab in solution
[17] = target: sc9-10 DS-Cav1 A149C, Y458C S46G-N67I-E92D-S215P-K465Q (A2); test: BLI (Octet), F on Ni-NTA tips, Fab in solution
[18] = target: sc9-10 DS-Cav1 A149C, Y458C S46G-S215P-K465Q (A2); test: BLI (Octet), F on Ni-NTA tips, Fab in solution
[19] = target: sc9-10 DS-Cav1 N183GC, N428C S46G-N67I-E92D-S215P-K465Q (A2); test: BLI (Octet), F on Ni-NTA tips, Fab in solution
[20] = target: sc9-10 DS-Cav1 N183GC,N428C; test: BLI (Octet), F on Ni-NTA tips, Fab in solution
[21] = target: sc9-10 DS-Cav1 Q98C, Q361C L95M-I221M-R429K (B18537); test: BLI (Octet), F on Ni-NTA tips, Fab in solution
[22] = target: sc9-10 DS-Cav1 Q98C, Q361C S46G-E92D-L95M-S215P-I217P-I221M-R429K-K465Q (Long (VR26)); test: BLI (Octet), F on Ni-NTA tips, Fab in solution
sc9-19 DS-Cav1 = test: BLI (Octet), F on Ni-NTA tips, Fab in solution
sc9-24 DS-Cav1 = test: BLI (Octet), F on Ni-NTA tips, Fab in solution
sc8 DS-Cav1 = test: BLI (Octet), F on Ni-NTA tips, Fab in solution

Row | Substance | ELISA signal (antigenicity) [1] | ELISA signal (antigenicity) (RSVF Cav1only) | ELISA signal (antigenicity) (RSVF dFP) | ELISA signal (antigenicity) [2] | ELISA signal (antigenicity) (sc9-10 Cav1only 100-360) | ELISA signal (antigenicity) (sc9-10 Cav1only 100-361) | ELISA signal (antigenicity) (sc9-10 Cav1only 100-362) | ELISA signal (antigenicity) (sc9-10 Cav1only 146-458) | ELISA signal (antigenicity) (sc9-10 Cav1only 369-455) | ELISA signal (antigenicity) (sc9-10 Cav1only 98-360) | ELISA signal (antigenicity) (sc9-10 Cav1only 98-361) | ELISA signal (antigenicity) (sc9-10 Cav1only 98-362) | ELISA signal (antigenicity) (sc9-10 Cav1only 99-360) | ELISA signal (antigenicity) (sc9-10 Cav1only 99-361) | ELISA signal (antigenicity) (sc9-10 Cav1only 99-362) | ELISA signal (antigenicity) (sc9-10 Cav1only) | ELISA signal (antigenicity) [3] | Kd [11] [nM] | Kd [12] [nM] | Kd [13] [nM] | also measured
1 | AM14 antibody | 1.71 | 2.81 | 0.05 | 0.211 | 0.344 | 0.0969 | 0.0541 | 0.102 | 0.0785 | 0.199 | 0.356 | 0.516 | 0.0553 | 2.64 | 0.805 | 3.31 | 0.0514 | – | – | – | T1/2 of AM14 reactivity at 60 °C [4]: 1.4 h; T1/2 of AM14 reactivity at 60 °C [5]: 7.8 h; T1/2 of AM14 reactivity at 60 °C [6]: 8.3 h; T1/2 of AM14 reactivity at 60 °C [7]: 7.5 h; T1/2 of AM14 reactivity at 60 °C [8]: 6 h; T1/2 of AM14 reactivity at 60 °C [9]: 27.1 h; T1/2 of AM14 reactivity at 60 °C [10]: 33.8 h
2 | 5C4 (Fab) | – | – | – | – | – | – | – | – | – | – | – | – | – | – | – | – | – | 13 | 31.3 | 26.2 | Kd [14]: 17.9 nM; Kd (sc10 DS-Cav1): 38.1 nM; Kd (sc11 DS-Cav1): 58.8 nM; Kd (sc9 DS-Cav1-105Q): 28.8 nM; Kd [15]: 32.1 nM; Kd [16]: 315 nM; Kd [17]: 127 nM; Kd [18]: 92.2 nM; Kd [19]: 79.7 nM; Kd [20]: 14 nM; Kd [21]: 101 nM; Kd [22]: 35.8 nM; Kd (sc9-19 DS-Cav1): 22.6 nM; Kd (sc9-24 DS-Cav1): 20.8 nM
3 | Mota (antibody) | 1.72 | 3.35 | 3.42 | 2.55 | 1.61 | 2.8 | 1.53 | 1.95 | 2.5 | 1.04 | 2.24 | 0.828 | 1.11 | 2.71 | 1.38 | 3.59 | 2.07 | – | – | – | –
4 | MPE8 (antibody) | 2.16 | 3.08 | 2.77 | 2.5 | 1.28 | 0.786 | 0.298 | 1.85 | 2.32 | 0.734 | 1.4 | 0.845 | 0.625 | 2.66 | 1.28 | 3.54 | 0.228 | – | – | – | T1/2 of MPE8 reactivity at 60 °C [4]: 2 h; T1/2 of MPE8 reactivity at 60 °C [5]: 14.4 h; T1/2 of MPE8 reactivity at 60 °C [6]: 12.6 h; T1/2 of MPE8 reactivity at 60 °C [7]: 12.7 h; T1/2 of MPE8 reactivity at 60 °C [8]: 11.2 h; T1/2 of MPE8 reactivity at 60 °C [9]: 35.1 h; T1/2 of MPE8 reactivity at 60 °C [10]: 48.3 h
5 | AM22 (Fab) | – | – | – | – | – | – | – | – | – | – | – | – | – | – | – | – | – | < 0.01 | < 0.01 | < 0.01 | Kd [14]: 2.8 nM; Kd (sc10 DS-Cav1): 0.3 nM; Kd (sc11 DS-Cav1): 1.6 nM; Kd (sc8 DS-Cav1): 3.9 nM; Kd (sc9 DS-Cav1-105Q): < 0.01 nM; Kd [15]: 0.1 nM; Kd [16]: 0.3 nM; Kd [17]: 0.2 nM; Kd [18]: 0.5 nM; Kd [19]: 0.4 nM; Kd [20]: 0.2 nM; Kd [21]: 0.1 nM; Kd [22]: 0.1 nM; Kd (sc9-19 DS-Cav1): 0.06 nM; Kd (sc9-24 DS-Cav1): 0.3 nM
6 | D25 antibody | 2.13 | – | 0.902 | – | 1.76 | – | – | – | – | 1.14 | – | – | 1.4 | – | – | – | – | – | – | – | T1/2 of D25 reactivity at 60 °C [4]: 3.2 h; T1/2 of D25 reactivity at 60 °C [5]: 16.5 h; T1/2 of D25 reactivity at 60 °C [6]: 26.7 h; T1/2 of D25 reactivity at 60 °C [7]: 26.4 h; T1/2 of D25 reactivity at 60 °C [8]: 23.4 h; T1/2 of D25 reactivity at 60 °C [9]: 23.3 h; T1/2 of D25 reactivity at 60 °C [10]: 42.4 h
